The record followed here is patent publication US20250206812A1 (AARHUS UNIVERSITET, published 2025).

For assay [1], the target named is recombinant Api m 2 (rApi m 2), venom hyaluronidase (honeybee, UniProt Q08169 34-382). Put plainly: ELISA, immobilized rApi m 2, purified nanobody. Background: ELISA stands for enzyme-linked immunosorbent assay.
Description: (A) Binding to immobilized Api m 1 was detected using anti-V5 antibody. […] (B) Binding to immobilized rApi m 2 was detected using mouse anti-penta-His and AP-conjugated rabbit anti-mouse IgG antibody.
The immunoreactivity of expressed nanobodies was assessed by ELISA. Briefly, micro well plates were coated with 10 μg/ml nApi m 1 or rApi m 2 diluted in PBS at 4° C. o.n. After blocking for 1 h with PBS containing 4% skimmed milk powder, purified nanobodies were incubated in the wells for 2-3 h at rt. shaking. After washing, nanobodies were detected with rabbit anti-V5 antibody (antibodies-online) and AP-conjugated goat anti-rabbit IgG antibody (Sigma) or with mouse anti-penta-His and AP-conjugated rabbit anti-mouse IgG antibody (Sigma).
Assay [2] concerns the target T1, native Api m 1 (nApi m 1), phospholipase A2 from honeybee venom (Apis mellifera, UniProt P00630 34-167).
Assay [3] has as its target T1, native Api m 1 (nApi m 1), …. The experiment in a line: cell-based or functional assay.
The target is the same in assay [4]. Put plainly: monoclonal phage ELISA (phage-displayed nanobody) on immobilized Api m 1 or AM1-4 IgG/Api m 1 complexes; positive clones.
Description: Enrichment of the nanobody phage library was assessed in ELISA by measuring the immunoreactivity of polyclonal phages (A). Binding of phages to immobilized Api m 1 or AM1-4 IgG/Api m 1 complexes was detected using a biotinylated anti-M13 antibody. Data are mean±s.d. of duplicates. Immunoreactivity of monoclonal phages was analyzed in ELISA as above (B). Data are single measurements.
After two rounds of selection the polyclonal phages were assessed for binding to Api m 1 by ELISA. Briefly, micro well plates were coated with 2 μg/ml Api m 1 or 10 μg/ml AM1-4IgG diluted in PBS at 4° C. o.n. After blocking for 30 min with TBS containing 4% skimmed milk powder, the wells were incubated with 2 μg/ml Api m 1 for 1 h at room temperature. After formation of AM1-4 IgG/Api m 1 complexes, polyclonal phages (1×10¹² phages/ml) were incubated in the wells for 2 h at room temperature. After washing, bound phages were detected with biotinylated anti-M13 antibody (Invitrogen) and AP-conjugated ExtrAvidin. For assessment of monoclonal phages, E. coli ER2738 infected with polyclonal phages were plated and individual colonies were picked and expanded for monoclonal phage propagation. Monoclonal phages were assessed by ELISA as described above.
Assay [5] shares this target. Put plainly: BLI, compared with AM1-1 IgG1. For orientation: BLI is a label-free optical method that tracks binding on a fibre tip over time.

T1 sequence (P00630 34-167): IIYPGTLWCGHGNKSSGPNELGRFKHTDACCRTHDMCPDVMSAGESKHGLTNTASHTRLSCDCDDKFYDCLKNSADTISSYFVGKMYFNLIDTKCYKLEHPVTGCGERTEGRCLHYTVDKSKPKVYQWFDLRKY
Sequence of recombinant Api m 2 (rApi m 2), venom hyaluronidase (Q08169 34-382): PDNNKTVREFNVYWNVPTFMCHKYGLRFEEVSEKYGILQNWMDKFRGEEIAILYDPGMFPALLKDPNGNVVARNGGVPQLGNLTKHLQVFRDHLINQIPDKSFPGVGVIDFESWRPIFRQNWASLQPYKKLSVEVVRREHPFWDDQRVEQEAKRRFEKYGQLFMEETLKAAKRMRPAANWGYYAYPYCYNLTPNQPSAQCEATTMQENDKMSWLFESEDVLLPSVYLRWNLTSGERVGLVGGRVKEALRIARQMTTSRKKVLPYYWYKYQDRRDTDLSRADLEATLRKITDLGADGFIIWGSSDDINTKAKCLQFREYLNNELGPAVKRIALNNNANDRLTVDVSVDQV

B1: nanobody AM2-C2 (VHH, not shown: small tags and cut ends)
VHH: EVQLQESGGGLVQPGGSLRLSCAASGTTINIGAARWYRQAPGKQREVVAGISFGGATNYIDSVKGRFTISRGDALNTWYLQMNNLKPEDTAVYYCNARGEWGQGTQVAVS
On to B1, for which, in assay [1], the binding result was “binds”.

B2: AM1-1 IgG1 (monospecific nanobody-based human IgG1) (Fc fusion)
chain: QVQLVETGGGLVQAGGSLRLSCATSGTIFSRATMAWYRQTPGKQREWVTTITTSGNTNYADSVKGRFTISRDNAESTLYLQMNSLKPEDTAVYYCNAQFLSSRTNYWGKGTQVTVS
As a reminder, the Kd is the constant that tells how readily two partners part at equilibrium. Low values mean higher affinity, high ones lower affinity. As to B2, the Kd in assay [2] was 1.94 nM. Besides, in assay [3], the “inhibition of basophil activation (CD63 positive), Patient 1” value (“inhibition … Patient 1” below) came to 16% and the “inhibition of basophil activation (CD63 positive), Patient 2” value (from here on “inhibition … Patient 2”) stood at 7%.

B3: mix of the two monospecific nanobody-based human IgG1 (AM1-1 IgG1 and AM1-4 IgG1) (other)
chain 1: QVQLVETGGGLVQAGGSLRLSCATSGTIFSRATMAWYRQTPGKQREWVTTITTSGNTNYADSVKGRFTISRDNAESTLYLQMNSLKPEDTAVYYCNAQFLSSRTNYWGKGTQVTVS
chain 2: QVQLVESGGGLVQAGGSLRLSCAASGRTFSRYAMGWFRQAPGKEREFVSAISGSGGFTDYADSVKGRFTISRDNAKSTVYLRMSSLKPEDTAVYYCAAEGSRGSSTRLDARGTYDYWGQGTQVTVS
In the case of B3, in assay [3], the “inhibition … Patient 1” value was determined as 69% and the “inhibition … Patient 2” value came out at 38%.

B4: nanobody AM2-O2 (VHH, not shown: small tags and cut ends)
VHH: EVQLQESGGGLVQAGGSLRLSCAASGDTICISAMGWYRQAPGKERELVAVITSADSTNYADSVKGRFTISRAGAKNTLYLQMNSLKPEDTAVYYCNAHTPKYSDFEVTCYEYDYWGQGTLVSVS
Consider B4, for which the binding result in assay [1] was “binds”.

B5: nanobody AM1-22 (VHH, not shown: small tags and cut ends)
VHH: QVQLVESGGGLVQAGGSLRLSCAASGSIFNWAWYRQFPGKQREWVATITSGGNTNLADSVKGRFTISLDNAKNTMYLQMNSLKPEDTAVYYCNSARFRNRDAIWGQGTQVTVS
notes: also called B4
B5: in assay [4], the binding result is listed as “binds”.

B6: AM1-22 IgG1 (nanobody-based human IgG1) (Fc fusion)
chain: QVQLVESGGGLVQAGGSLRLSCAASGSIFNWAWYRQFPGKQREWVATITSGGNTNLADSVKGRFTISLDNAKNTMYLQMNSLKPEDTAVYYCNSARFRNRDAIWGQGTQVTVS
As to B6, in assay [2], the Kd was < 0.001 nM. For the same molecule, in assay [5], the “fold higher affinity than AM1-1 IgG1” value was ~100 fold.

B7: AM1-4 IgG1 (monospecific nanobody-based human IgG1) (Fc fusion)
chain: QVQLVESGGGLVQAGGSLRLSCAASGRTFSRYAMGWFRQAPGKEREFVSAISGSGGFTDYADSVKGRFTISRDNAKSTVYLRMSSLKPEDTAVYYCAAEGSRGSSTRLDARGTYDYWGQGTQVTVS
On to B7, for which the Kd in assay [2] was found to be 0.3 nM. Moreover, in assay [3], the “inhibition … Patient 1” value was determined as 44% and the “inhibition … Patient 2” value was found to be 23%.

B8: nanobody AM1-21 (VHH, not shown: small tags and cut ends)
VHH: QVQLVESGGGLVQAGGSLRLSCAASGFTLDYYAIGWFRQAPGKEREGVSCITSYDDSTYYTDSVKGRFTISRDNAKNTVYLQMNSLKPEDTAVYYCAAVGTWYLVNWWAPSEYDYWGQGTQVTVS
notes: also called A7
On to B8, for which the binding result in assay [4] is listed as “binds”.

B9: AM1-21 IgG1 (nanobody-based human IgG1) (Fc fusion)
chain: QVQLVESGGGLVQAGGSLRLSCAASGFTLDYYAIGWFRQAPGKEREGVSCITSYDDSTYYTDSVKGRFTISRDNAKNTVYLQMNSLKPEDTAVYYCAAVGTWYLVNWWAPSEYDYWGQGTQVTVS
B9 registered a Kd in assay [2] of 0.0153 nM. Further, the “fold higher affinity than AM1-1 IgG1” value in assay [5] is ~100 fold.
